The values below come from patent US20230035403A1, “Method For Determining Responsiveness To Prostate Cancer Treatment” (Janssen Biotech, Inc., priority 2020, published 2023).

Test in all cases: In vitro binding of neoantigens to class I MHC (UV peptide exchange, HLA class I ELISA)
Details in all cases: 100% = same binding affinity as positive control peptide

In one experiment the target is HLA-A*01:01 (Homo sapiens, UniProt P04439, A114D/A174V/A182V/D101N/D185E/E176A/E190D/L180R/Q94H/R68K/S129P/T187R/V100A/V91M/W191G). A digest of the protocol: (§1)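 Conditional biotinylated HLA class I complexes were UV-irradiated with candidate 9-mer peptides to drive peptide exchange, alongside a positive-control (Pos) peptide and a no-peptide UV control. Intact complexes were captured on streptavidin and detected with an HRP anti-B2M antibody, read as absorbance. Binding is expressed as exchange percentage relative to Pos.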

A further experiment has as its target HLA-A*02:01 (Homo sapiens, UniProt P04439, D140Y/D185E/D98H/E176V/E277Q/G131W/G231S/I119V/I121R/I166T/I218V/L300P/L318F/N151K/N90K/P208A/P217A/Q86G/Q94H/R138H/R169H/T345S). A digest of the protocol: as §1
The target in the next experiment is HLA-A*24:02 (Homo sapiens, UniProt P04439, D101N/D140Y/D185E/E176V/E190D/F33S/G103R/G107R/I119L/I121M/I306V/K335N/L105A/L180Q/L300P/N151K/N90K/Q86E/Q94H/R106L/R138H/R89G/T104I/T345S/V100E/W191G/Y123F). Put shortly: as §1
Another experiment concerns the target HLA-B*07:02 (Homo sapiens, UniProt P01889). A digest of the protocol:
as §1

The target of the next experiment is HLA-B*08:01 (Homo sapiens, UniProt P01889, A93T/A95T/D138N/E176V/E187T/K202T/Q94N/R180D/S35A/V36M/Y33D/Y91F). A digest of the protocol:
as §1

With SLYHREKQLIAMDSAI [Neoantigen P22], in the experiment with HLA-A*01:01, the “Exchange rate with the allele specific Pos peptide, HLA-A*01:01” value (shortened to “Exchange rate … HLA-A*01:01”) is 4.4%. The “Exchange rate with the allele specific Pos peptide, HLA-A*02:01” value (“Exchange rate … HLA-A*02:01” for short) in the experiment with HLA-A*02:01 was 46.9%. In the experiment with HLA-A*24:02, the “Exchange rate with the allele specific Pos peptide, HLA-A*24:02” value (“Exchange rate … HLA-A*24:02” below) came out at 0%. Further, the “Exchange rate with the allele specific Pos peptide, HLA-B*07:02” value (shortened to “Exchange rate … HLA-B*07:02”) in the experiment with HLA-B*07:02 is listed as 8.3%. Moreover, in the experiment with HLA-B*08:01, the “Exchange rate with the allele specific Pos peptide, HLA-B*08:01” value (“Exchange rate … HLA-B*08:01” for short) is 3.9%.

Regarding “YEAGMTLGGKILFFLFLLLPLSPFSLIF [Neoantigen P87]”, the “Exchange rate … HLA-A*01:01” value in the experiment with HLA-A*01:01 is on record as 1.1%. Moreover, the “Exchange rate … HLA-A*02:01” value in the experiment with HLA-A*02:01 came out at 64%. Moreover, the “Exchange rate … HLA-A*24:02” value with HLA-A*24:02 was determined as 0.2%. The “Exchange rate … HLA-B*07:02” value in the experiment with HLA-B*07:02 was determined as 5%. The “Exchange rate … HLA-B*08:01” value in the experiment with HLA-B*08:01 was 3.1%.

“YEAGMTLGEKFRVGNCKHLKMTRP [Neoantigen P82]”: the “Exchange rate … HLA-A*01:01” value with HLA-A*01:01 was 1.5%. The “Exchange rate … HLA-A*02:01” value with HLA-A*02:01 is 6.3%. In the experiment with HLA-A*24:02, the “Exchange rate … HLA-A*24:02” value is reported as −0.1%. The “Exchange rate … HLA-B*07:02” value with HLA-B*07:02 turned out to be 12.9%. Also, the “Exchange rate … HLA-B*08:01” value with HLA-B*08:01 is recorded as 1.4%.
